According to patent US20230151091A1 (NEW YORK UNIVERSITY, published 2023):

Key:
cynomolgus monkey MuSK [1] = target: T1, cynomolgus monkey MuSK (cynomolgus monkey, UniProt A0A2K5USF6 24-487); assay: Biacore, MuSK on chip (200RU), 66.7 nM mAb, dissociation pH 7.4
In short: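 Sensor chip coated in parallel with cynomolgus monkey, rat and mouse MuSK. Antibody applied at a single concentration; association and dissociation kinetic parameters calculated from the sensorgrams.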

mouse MuSK [2] = target: T2, mouse MuSK (mouse, UniProt Q61006 22-494, limits assumed); assay: Biacore, MuSK on chip (200RU), mAb dilution series
T2 construct: Coated on ELISA plates or on the Biacore chip; also called full length mouse MuSK; mouse MuSK (in house produced in HEK293 cells)
T2 sequence (looked up): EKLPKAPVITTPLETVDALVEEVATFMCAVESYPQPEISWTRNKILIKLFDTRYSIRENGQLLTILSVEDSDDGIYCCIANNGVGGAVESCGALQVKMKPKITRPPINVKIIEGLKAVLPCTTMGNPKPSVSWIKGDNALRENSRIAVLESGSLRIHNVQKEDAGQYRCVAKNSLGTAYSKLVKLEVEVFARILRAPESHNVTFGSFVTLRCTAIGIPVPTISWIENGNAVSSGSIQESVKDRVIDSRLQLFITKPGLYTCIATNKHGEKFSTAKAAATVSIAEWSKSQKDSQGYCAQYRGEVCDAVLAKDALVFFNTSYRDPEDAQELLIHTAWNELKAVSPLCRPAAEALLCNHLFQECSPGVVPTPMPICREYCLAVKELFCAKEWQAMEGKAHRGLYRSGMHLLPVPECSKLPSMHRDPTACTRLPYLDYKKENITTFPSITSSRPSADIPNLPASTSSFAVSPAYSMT
Source text: (§1) For affinity determination, a CMS chip was coated with either human or mouse MuSK (200RU) and a dilution series of the antibodies (mAbs and Fabs) was applied in order to be able to calculate the affinity.

human MuSK = target: T3, human MuSK (human, UniProt O15146 24-495); assay: Biacore, MuSK on chip (200RU), mAb dilution series
T3 construct: Recombinant protein coated on ELISA plates (R&D Systems cat. 10189-MK) or on the Biacore chip; also called human muscle-specific tyrosine protein kinase; full length human MuSK
T3 sequence: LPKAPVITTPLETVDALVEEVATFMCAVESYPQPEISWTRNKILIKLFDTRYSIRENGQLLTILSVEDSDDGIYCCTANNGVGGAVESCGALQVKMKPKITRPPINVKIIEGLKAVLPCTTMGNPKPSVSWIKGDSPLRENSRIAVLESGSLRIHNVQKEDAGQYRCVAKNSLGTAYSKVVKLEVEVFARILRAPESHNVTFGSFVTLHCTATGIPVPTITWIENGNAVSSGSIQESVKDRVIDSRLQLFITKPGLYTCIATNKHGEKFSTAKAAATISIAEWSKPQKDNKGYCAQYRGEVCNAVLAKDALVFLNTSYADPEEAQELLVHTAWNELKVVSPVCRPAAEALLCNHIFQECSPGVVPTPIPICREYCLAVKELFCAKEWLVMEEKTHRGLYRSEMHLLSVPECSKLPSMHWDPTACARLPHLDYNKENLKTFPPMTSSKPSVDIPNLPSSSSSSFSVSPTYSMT
Source text: as §1

mouse MuSK [3] = target: T2, mouse MuSK; assay: Biacore, MuSK on chip, association pH 7.4, dissociation pH 5.5
In short: (§2)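 MuSK was immobilized on the sensor chip at 200 RU, and antibody was injected at 66.7 nM. Association ran at pH 7.4 and dissociation at pH 5.5, and kinetic parameters were calculated from the sensorgrams.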

cynomolgus monkey MuSK [4] = target: T1, cynomolgus monkey MuSK; assay: as above
In short: as §2

rat MuSK = target: T4, rat MuSK (rat, UniProt Q62838 22-494, limits assumed); assay: as above
T4 construct: Coated on Biacore chip (200RU) or ELISA plate
T4 sequence (looked up): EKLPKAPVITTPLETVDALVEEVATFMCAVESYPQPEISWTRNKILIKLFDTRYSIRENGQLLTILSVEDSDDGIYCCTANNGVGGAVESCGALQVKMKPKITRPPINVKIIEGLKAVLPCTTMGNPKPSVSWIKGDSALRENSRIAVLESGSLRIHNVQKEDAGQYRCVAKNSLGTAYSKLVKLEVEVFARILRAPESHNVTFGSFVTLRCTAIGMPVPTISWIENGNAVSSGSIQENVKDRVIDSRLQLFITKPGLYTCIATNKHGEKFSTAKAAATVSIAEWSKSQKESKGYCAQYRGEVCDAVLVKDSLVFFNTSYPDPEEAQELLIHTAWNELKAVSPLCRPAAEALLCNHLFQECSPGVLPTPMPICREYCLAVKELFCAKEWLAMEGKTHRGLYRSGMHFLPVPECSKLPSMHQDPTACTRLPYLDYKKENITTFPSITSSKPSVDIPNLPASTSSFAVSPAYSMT
In short: as §2

T1 sequence (A0A2K5USF6 entry or part of it): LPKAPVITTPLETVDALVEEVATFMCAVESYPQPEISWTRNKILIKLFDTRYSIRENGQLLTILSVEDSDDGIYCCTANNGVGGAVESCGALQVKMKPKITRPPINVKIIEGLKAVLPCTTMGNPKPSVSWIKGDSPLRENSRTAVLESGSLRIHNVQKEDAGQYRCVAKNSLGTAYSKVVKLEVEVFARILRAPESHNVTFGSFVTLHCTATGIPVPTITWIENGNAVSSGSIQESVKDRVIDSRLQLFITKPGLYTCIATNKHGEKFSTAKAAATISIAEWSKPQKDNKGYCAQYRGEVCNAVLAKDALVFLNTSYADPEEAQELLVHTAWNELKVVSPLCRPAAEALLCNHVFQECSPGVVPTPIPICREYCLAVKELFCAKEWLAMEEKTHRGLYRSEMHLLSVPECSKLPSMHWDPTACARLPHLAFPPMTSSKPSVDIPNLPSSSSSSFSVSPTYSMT

B1: 3B2 (antibody, V domains shown)
VH: ELQLVESGGGLVQPGGSLRLSCAASGFTFDDYGMSWVRQAPGKGLEWVSAIPWNGGSTYYKESVKGRFTISRDNAKKTLYLQMNSLKSEDTAVYYCAKRSGRIAFGALDAWGQGTLVTVSS
VL: QAVVTQEPSLSVSPGGTVTLTCGLSSGSVTSSNYPDWYQQTPGQAPRGLIYSTDSRHSGVPSRFSGSISGNKAALTITGAQSEDEADYYCGLYMYSGSKNYVFGGGTKLTVL
notes: human IgG1 with the LALA mutations (L234A, L235A); produced in HEK293 cells; also called 3B2 mAb; parental 3B2 Ab
**Q.** How did the R0 (cynomolgus monkey MuSK [1]) turn out when B1 was run?
**A.** Its R0 is 143 RU.

**Q.** And the koff (cynomolgus monkey MuSK [1])?
**A.** Its koff is 0.00097 s⁻¹.

**Q.** What about the kon (cynomolgus monkey MuSK [1]) of the same binder?
**A.** The kon was 790000 M⁻¹ s⁻¹.

**Q.** And the Kd (mouse MuSK [2])?
**A.** The Kd was 0.134 nM.

**Q.** What about the Kd (human MuSK) of the same binder?
**A.** The Kd was 0.145 nM.

**Q.** And the R0 (mouse MuSK [3])?
**A.** Its R0 is 194 RU.

**Q.** And the koff (mouse MuSK [3])?
**A.** Its koff is 0.00296 s⁻¹.

**Q.** What about the kon (mouse MuSK [3]) of the same binder?
**A.** Its kon is 1.05e+06 M⁻¹ s⁻¹.

**Q.** And the R0 (cynomolgus monkey MuSK [4])?
**A.** Its R0 is 149 RU.

**Q.** What about the koff (cynomolgus monkey MuSK [4]) of the same binder?
**A.** The koff was 0.00317 s⁻¹.

**Q.** What about the kon (cynomolgus monkey MuSK [4]) of the same binder?
**A.** Its kon is 740000 M⁻¹ s⁻¹.

**Q.** What about the R0 (rat MuSK) of the same binder?
**A.** Its R0 is 174 RU.

**Q.** What about the koff (rat MuSK) of the same binder?
**A.** The koff was 0.0062 s⁻¹.

**Q.** And the kon (rat MuSK)?
**A.** Its kon is 980000 M⁻¹ s⁻¹.
